Here are results for 1 molecule from US20030199040A1 (IMMUNEX, published 2003).

The experiment has as its target monkey IL-1Rrp1 endogenous to COS7 cells (monkey). Kind of experiment: cell-based or functional assay.

B1: hAcPL expressed on COS7 cells (receptor)
chain: ERIKGFNISGCSTKKLLWTYSTRSEEEFVLFCDLPEPQKSHFCHRNRLSPKQVPEHLPFMGSNDLSDVQWYQQPSNGDPLEDIRKSYPHIIQDKCTLHFLTPGVNNSGSYICRPKMIKSPYDVACCVKMILEVKPQTNASCEYSASHKQDLLLGSTGSISCPSLSCQSDAQSPAVTWYKNGKLLSVERSNRIVVDEVYDYHQGTYVCDYTQSDTVSSWTVRAVVQVRTIVGDTKLKPDILDPVEDTLEVELGKPLTISCKARFGFERVFNPVIKWYIKDSDLEWEVSVPEAKSIKSTLKDEIIERNIILEKVTQRDLRRKFVCFVQNSIGNTTQSVQLKEKRGVVLLYILLGTIGTLVAVLAASALLYRHWIEIVLLYRTYQSKDQTLGDKKDFDAFVSYAKWSSFPSEATSSLSEEHLALSLFPDVLENKYGYSLCLLERDVAPGGVYAEDIVSIIKRSRRGIFILSPNYVNGPSIFELQAAVNLALDDQTLKLILIKFCYFQEPESLPHLVKKALRVLPTVTWRGLKSVPPNSRFWAKMRYHMPVKNSQGFTWNQLRITSRIFQWKGLSRTETTGRSSQPKEW
As for B1, the “increase in NFκB activity (NFκB-Luc reporter) in COS7 cells transfected with hAcPL alone and stimulated with hIL-18” value came to 8 fold.
